Results taken from the supplement of paper PMC7877785.
± gives the uncertainty stated by the source.

Test: self-splicing fitness, log relative to wild type (ln ratio); higher = more splicing; Tetrahymena group I intron in knt gene, E. coli kanamycin selection, DiMSum; sequences stand for … in CUCUCU…GGAGGGAAAAGUUAUCAGGCAUGCACCUGGUAGCUAGUCUUUAAACCAAUAGAUUGCAUCGGUUUAAAAGGCAAGACCGUCAAAUUGCGGGAAAGGGGUCAACAGCCGUUCAGUACCAAGUCUCAGGGGAAACUUUGAGAUGGCCUUGCAAAGGGUAUGGUAAUAAGCUGACGGACAUGGUCCUAACCACGCAGCCAAGUCCUAAGUCAACAGAUCUUCUGUUGAUAUGGAUGCAGUUCACAGACUAAAUGUCGGUCGGGGAAGAUGUAUUCUUCUCAUAAGAUAUAGUCGGACCUCUCCUUAAUGGGAGCUAGCGGAUGAAGUGAUGCAACACUGGAGCCGCUGGGAACUAAUUUGUAUGCGAAAGUAUAUUGAUUAGUUUUGGAGUACUCGUGGUCG
Procedure, shortened: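 Library with all eight P1ex-region intron nucleotides randomised, intron inside the knt kanamycin-resistance gene on pET-22b(+), in E. coli BL21(DE3). Cells grew overnight at 37°C or 30°C on LB agar with or without 25 μg/mL kanamycin (plus 100 μg/mL carbenicillin, 50 μM IPTG, 0.2% rhamnose), in six replicate transformations. Pooled colonies were amplicon-sequenced on Illumina HiSeq 2500. DiMSum fitness is the error-weighted combination of wild-type-normalised replicate fold changes, kanamycin versus none.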

| Sequence | self-splicing fitness (ln) (30 °C) | self-splicing fitness (ln) (37 °C) |
| --- | --- | --- |
| AUUAAGCAAUAUUACGGACU | 0.271 ± 0.11 | 0.324 ± 0.15 |
| AUUAAGCAAUAUUACGGGGC | -3 ± 0.21 | -1.98 ± 0.26 |
| AUUAAGCAAUAUUACGGGGG | -2.97 ± 0.27 | -2.33 ± 0.33 |
| AUUAAGCAAUAUUACGGUAC | -3.84 ± 0.47 | -1.6 ± 0.2 |
| AUUAAGCAAUAUUACGUAUC | -3.93 ± 0.25 | -2.31 ± 0.24 |
| AUUAAGCAAUAUUACGUCCA | -0.883 ± 0.098 | -0.386 ± 0.12 |
| AUUAAGCAAUAUUACGUGAC | -3.17 ± 0.17 | -1.75 ± 0.18 |
| AUUAAGCAAUAUUACGUGGU | -2.42 ± 0.16 | -2.29 ± 0.19 |
| AUUAAGCAAUAUUACGUUUG | -3.11 ± 0.15 | -1.56 ± 0.16 |
| AUUCAGCAAUAUUACGAAGG | -1.02 ± 0.087 | -0.355 ± 0.12 |
| AUUCAGCAAUAUUACGACAU | 0.206 ± 0.012 | 0.365 ± 0.032 |
| AUUCAGCAAUAUUACGAGCU | -1.21 ± 0.14 | -0.997 ± 0.17 |
| AUUCAGCAAUAUUACGAGUC | -3.54 ± 0.26 | -2.13 ± 0.43 |
| AUUCAGCAAUAUUACGCGGC | -3.26 ± 0.22 | -2.43 ± 0.22 |
| AUUCAGCAAUAUUACGGAAC | -2.54 ± 0.15 | -1.01 ± 0.17 |
| AUUCAGCAAUAUUACGGAAU | -2.86 ± 0.14 | -2.61 ± 0.23 |
| AUUCAGCAAUAUUACGGCUG | -1.86 ± 0.2 | -2.59 ± 0.31 |
| AUUCAGCAAUAUUACGGGAC | -3.2 ± 0.16 | -1.2 ± 0.12 |
| AUUCAGCAAUAUUACGGGCA | -1.47 ± 0.14 | -0.16 ± 0.14 |
| AUUCAGCAAUAUUACGGUAC | -2.27 ± 0.11 | -0.675 ± 0.094 |
| AUUCAGCAAUAUUACGGUCA | -0.711 ± 0.12 | -0.789 ± 0.11 |
| AUUCAGCAAUAUUACGGUGC | -2.13 ± 0.16 | -0.156 ± 0.14 |
| AUUCAGCAAUAUUACGUAGA | -1.35 ± 0.066 | -0.424 ± 0.094 |
| AUUCAGCAAUAUUACGUAUA | -1.66 ± 0.16 | -0.805 ± 0.17 |

| Sequence | self-splicing fitness (ln) (30 °C) | self-splicing fitness (ln) (37 °C) |
| --- | --- | --- |
| AUUCAGCAAUAUUACGUAUG | -2.34 ± 0.13 | -0.383 ± 0.12 |
| AUUCAGCAAUAUUACGUCAC | -3.45 ± 0.2 | -2.19 ± 0.25 |
| AUUCAGCAAUAUUACGUGUA | -1.7 ± 0.11 | -1.02 ± 0.092 |
| AUUGAGCAAUAUUACGAACA | -3.6 ± 0.32 | -2.75 ± 0.25 |
| AUUGAGCAAUAUUACGAAGA | -2.47 ± 0.25 | -2.23 ± 0.35 |
| AUUGAGCAAUAUUACGACAG | -3.48 ± 0.26 | -2.18 ± 0.21 |
| AUUGAGCAAUAUUACGACCU | -3.17 ± 0.27 | -0.0611 ± 0.17 |
| AUUGAGCAAUAUUACGACUA | -1.2 ± 0.42 | -1.89 ± 0.41 |
| AUUGAGCAAUAUUACGACUU | -1.5 ± 0.12 | -0.31 ± 0.13 |
| AUUGAGCAAUAUUACGAGCC | -3.44 ± 0.26 | -2.48 ± 0.3 |
| AUUGAGCAAUAUUACGAGCU | -3.6 ± 0.37 | -1.63 ± 0.37 |
| AUUGAGCAAUAUUACGAGUU | -2.58 ± 0.14 | -2.23 ± 0.17 |
| AUUGAGCAAUAUUACGAUCG | -2.34 ± 0.34 | -1.04 ± 0.19 |
| AUUGAGCAAUAUUACGAUUA | -2.36 ± 0.23 | -2.62 ± 0.36 |
| AUUGAGCAAUAUUACGCCCU | -2.51 ± 0.24 | -0.951 ± 0.21 |
| AUUGAGCAAUAUUACGCGCA | -1.48 ± 0.16 | -1.08 ± 0.2 |
| AUUGAGCAAUAUUACGCUAC | -3.69 ± 0.37 | – |
| AUUGAGCAAUAUUACGGAGU | -3.76 ± 0.15 | -1.86 ± 0.1 |
| AUUGAGCAAUAUUACGGCCG | -3.13 ± 0.26 | -0.636 ± 0.18 |
| AUUGAGCAAUAUUACGGCCU | -3.53 ± 0.21 | -0.674 ± 0.11 |
| AUUGAGCAAUAUUACGGCUA | -1.73 ± 0.37 | -0.81 ± 0.21 |
| AUUGAGCAAUAUUACGGGAG | -3.67 ± 0.26 | -2.33 ± 0.27 |
| AUUGAGCAAUAUUACGGUAG | -3.32 ± 0.24 | – |
| AUUGAGCAAUAUUACGUACG | -3.25 ± 0.29 | -1.53 ± 0.26 |

| Sequence | self-splicing fitness (ln) (30 °C) | self-splicing fitness (ln) (37 °C) |
| --- | --- | --- |
| AUUGAGCAAUAUUACGUACU | -2.1 ± 0.28 | -2.57 ± 0.49 |
| AUUGAGCAAUAUUACGUAGU | -2.08 ± 0.17 | -0.638 ± 0.14 |
| AUUGAGCAAUAUUACGUAUA | -2.67 ± 0.28 | -2.98 ± 0.32 |
| AUUGAGCAAUAUUACGUGAG | -2.08 ± 0.11 | -1.97 ± 0.14 |
| AUUGAGCAAUAUUACGUGCC | -2.73 ± 0.4 | – |
| AUUGAGCAAUAUUACGUGCG | -3.83 ± 0.24 | -2.02 ± 0.16 |
| AUUGAGCAAUAUUACGUGGC | -3.45 ± 0.16 | -3.69 ± 0.3 |
| AUUGAGCAAUAUUACGUUGA | -3.86 ± 0.37 | -3.45 ± 0.3 |
| AUUUAGCAAUAUUACGACGG | -1.79 ± 0.18 | -0.641 ± 0.16 |
| AUUUAGCAAUAUUACGACUC | -0.866 ± 0.14 | 0.207 ± 0.16 |
| AUUUAGCAAUAUUACGACUG | -2 ± 0.17 | -1.41 ± 0.16 |
| AUUUAGCAAUAUUACGAGAC | -2.44 ± 0.39 | – |
| AUUUAGCAAUAUUACGAGUU | -2.58 ± 0.3 | -0.85 ± 0.23 |
| AUUUAGCAAUAUUACGAUGA | -1.8 ± 0.14 | -0.68 ± 0.15 |
| AUUUAGCAAUAUUACGCCCC | -0.747 ± 0.37 | – |
| AUUUAGCAAUAUUACGCCGU | -1.2 ± 0.2 | -1.44 ± 0.22 |
| AUUUAGCAAUAUUACGCUGA | -1.32 ± 0.19 | -2.44 ± 0.3 |
| AUUUAGCAAUAUUACGCUUA | -1.99 ± 0.17 | -0.321 ± 0.19 |
| AUUUAGCAAUAUUACGCUUG | -0.566 ± 0.088 | -0.134 ± 0.12 |
| AUUUAGCAAUAUUACGGAAC | -3.03 ± 0.3 | -2.02 ± 0.31 |
| AUUUAGCAAUAUUACGGCGA | -0.579 ± 0.12 | 0.144 ± 0.11 |
| AUUUAGCAAUAUUACGGCUA | -0.795 ± 0.13 | 0.255 ± 0.12 |
| AUUUAGCAAUAUUACGUACA | -1.7 ± 0.15 | -1.39 ± 0.13 |
| AUUUAGCAAUAUUACGUAGG | -2.98 ± 0.14 | -2.02 ± 0.16 |

| Sequence | self-splicing fitness (ln) (30 °C) | self-splicing fitness (ln) (37 °C) |
| --- | --- | --- |
| AUUUAGCAAUAUUACGUAGU | -1.54 ± 0.079 | -0.851 ± 0.1 |
| AUUUAGCAAUAUUACGUAUA | -2.53 ± 0.34 | -1.48 ± 0.21 |
| AUUUAGCAAUAUUACGUCGG | -3.82 ± 0.4 | -3.18 ± 0.32 |
| AUUUAGCAAUAUUACGUGAG | -1.6 ± 0.083 | -0.846 ± 0.13 |
| AUUUAGCAAUAUUACGUUGU | -3.01 ± 0.19 | -2.82 ± 0.27 |
| AUUUAGCAAUAUUACGUUUC | -2.86 ± 0.27 | -1.91 ± 0.34 |
| CAAAAGCAAUAUUACGAAUC | -4.86 ± 0.38 | -2.71 ± 0.21 |
| CAAAAGCAAUAUUACGACAC | -3.37 ± 0.19 | -1.01 ± 0.15 |
| CAAAAGCAAUAUUACGAGAU | -3.7 ± 0.2 | -2.21 ± 0.16 |
| CAAAAGCAAUAUUACGAGUU | -3.02 ± 0.15 | -2.46 ± 0.16 |
| CAAAAGCAAUAUUACGCAAC | -2.59 ± 0.16 | -2.53 ± 0.27 |
| CAAAAGCAAUAUUACGCAGC | -3.68 ± 0.16 | -2.36 ± 0.16 |
| CAAAAGCAAUAUUACGCAGG | -2.51 ± 0.1 | -1.24 ± 0.087 |
| CAAAAGCAAUAUUACGCAUC | -3.35 ± 0.11 | -1.52 ± 0.12 |
| CAAAAGCAAUAUUACGCCCG | -0.0339 ± 0.13 | 0.354 ± 0.15 |
| CAAAAGCAAUAUUACGCGAA | -3.36 ± 0.23 | -1.3 ± 0.17 |
| CAAAAGCAAUAUUACGCGAG | -2.58 ± 0.098 | -1.06 ± 0.078 |
| CAAAAGCAAUAUUACGCGGG | -2.38 ± 0.11 | -1.87 ± 0.13 |
| CAAAAGCAAUAUUACGGACA | -2.21 ± 0.15 | -1.64 ± 0.17 |
| CAAAAGCAAUAUUACGGAGU | -3.64 ± 0.14 | -2.56 ± 0.16 |
| CAAAAGCAAUAUUACGGCAU | -1.85 ± 0.11 | -1.4 ± 0.14 |
| CAAAAGCAAUAUUACGGGUA | -2.22 ± 0.13 | -2.12 ± 0.15 |
| CAAAAGCAAUAUUACGUAAU | -3.57 ± 0.15 | -3.04 ± 0.18 |
| CAAAAGCAAUAUUACGUCCG | -0.119 ± 0.082 | 0.175 ± 0.1 |
